Assay results published in patent US20260258115A1 (MAPP BIOPHARMACEUTICAL, published 2026).

Key:
Experiment in all cases: BLI, IgG
[1] = biological target: T1, RSV postfusion F (postF), subtype A (respiratory syncytial virus, subtype A, UniProt P03420 26-513)
T1 construct: also called F ΔFP; Postfusion subtype A

[2] = biological target: RSV prefusion F (preF), subtype A (respiratory syncytial virus, subtype A, UniProt P03420 26-513)
[3] = biological target: RSV prefusion F (preF), subtype B (respiratory syncytial virus, subtype B)

| Binder | binding result [1] | Kd [2] | Kd [3] | Kd [1] | binding result [2] |
| --- | --- | --- | --- | --- | --- |
| ADI-20977 (antibody, V domains shown, also called Ab 230) VH: EVQLVESGGGLVQPGGSLRLSCAASGFTFTNYAMSWVRQAPGKGLEWVSGISGSGGSTYYADSVKGRFTISRDNSKNTLYLQMNSLRAEDTAVYYCAKDQGYAVVVADATRNLPPRRYGMDVWGQGTTVTVSS VL: not shown | no binding | 0.151 nM |  |  |  |
| ADI-21010 (antibody, V domains shown) VH: EVQLVESGGGVVQPGRSLRLSCAASGFSFSTYGMHWVRQAPGKGLEWVGVIWYDETTKYYADSVKGRFSISRDNSKNMVYVQMNSLRADDTALYYCAREVWGGVFDIWGQGTTVTVSS VL: DIQMTQSPATLSASVGDRVTITCRASQNIVTWLAWYQQKPGKAPNLLIYKASSLESGVPSRFSGSGSGTEFTLTISSLQPDDFATYYCQHYNSYSGAFGQGTKVDIK | no binding | 3.58 nM |  |  |  |
| ADI-20965 (antibody, V domains shown) VH: QVQLVQSGAEVKKPGASVKVSCKASGYNFTNYGISWVRQAPGQGLEWMGWISTSNGNTHYAQKSQGRITLTTDTSTNTAYMEVRSLRSDDTAVYYCAREGPESTYDWYHFDSWGQGTLVTVSS VL: QSVVTQPPSVSVAPGQTAKITCGGNNIGSKTVHWYQLKAGQAPVLVVYDDSDRPSGIPERFSGSNSGNTATLTIRRVEAGDEADYFCQVWESASDHWVFGGGTKLTVL |  | 0.121 nM | 0.533 nM |  |  |
| ADI-14572 (antibody, V domains shown) VH: QVQLVQSGGGLVKPGGSLRLSCAASGFTFSNAWISWVRQAPGKGLEWVGRIKSATDGGTTDYAAPVKGRFTISRDDSKNTLYLQMDSLKTEDTAVYYCTTSYPYFDWLPFSVDYWGQGTLVTVSS VL: not shown |  |  |  | 17 nM | no binding |
| ADI-14395 (antibody, V domains shown, also called Ab 62) VH: EVQLVESGGGVVQPGRSLRLSCAASGFTFSSYAMHWVRQAPGKGLEWVAVISYDGSNKYYADSVKGRFTISRDNSKNTLYLQMNSLRAEDTAVYYCARDDTYYYDSSGYSAPFDYWGQGTLVTVSS VL: not shown | no binding | 24.9 nM |  |  |  |
| ADI-14397 (antibody, V domains shown, also called Ab 64) VH: EVQLVESGGGVVQPGRSLRLSCAASGFTFSSYAMHWVRQAPGKGLEWVAVISYDGSNKYYADSVKGRFTISRDNSKNTLYLQMNSLRAEDTAVYYCARDDTYYYDSNGYSAPFDYWGQGTLVTVSS VL: not shown | no binding | 28.5 nM |  |  |  |
| ADI-21031 (antibody, V domains shown) VH: EVQLVESGPGLVKPSQTLSLTCTVSGGSISNSNYFWSWIRQPAGKGLEWIGRVHSSGTTSYNPSLKSRITISVDASESQFSLNLTSVTAADTAIYYCARDSSDWGLGWYFDLWGRGTLVTVSS VL: ETTLTQSPATLSLSPGERATLSCRASQSVTFYLAWYQHKPGQAPRLLIFDASKRATGIPARFSGSGSGTDFTLTISSLEPEDFALYYCQQRSDWPQTFGQGTKVDIK |  | 1.07 nM | 1.5 nM |  |  |
| ADI-14571 (antibody, V domains shown) VH: QVQLVQSGAEVKKPGSSVKVSCKASGGTFSTYTITWVRQAPGQGLEWMGRIVPIFGVVNNAQKFLGRLTITADKSTSTAYMELSSLRSEDTAVYYCARIPCSGNCQDYYYGMDVWGQGTTVTVSS VL: DIQLTQSPSFLSASVGDRVTITCRASQGISSYLVWYQQKPGKAPKLLIYAASTLQSGVPSRFSGSGSGTEFTLTISSLQPEDFATYYCQQLNNYPPTFGPGTKVDIK | no binding | 2.91 nM |  |  |  |
| ADI-21006 (antibody, V domains shown) VH: QVTLKESGPTLVKPTQTLTLTCTFSGFSLSISGVGVGWIRQPPGKALEWLAVMYWDDDKRYSPSLKTRLTITKDTSKNQVVLTMTNMAPVDTAIYYCAHLWFGEAAFDPWGQGTLVTVSS VL: EIVLTQSPLSLPVTLRQTASISCRSGQSLLYSDGNTYLNWFQQRPGQSPRRLISIVSKRDSGVPDRFSGSGSGTDFTLKISRVEAEDVGVYYCMQGTHWPYTFGQGTKVEIK | no binding | 10.4 nM |  |  |  |
| ADI-14579 (antibody, V domains shown) VH: QVQLVQSGAEVKKPGESLKISCKVSGYSFTSYWIGWVRQMPGKGLEWMGIIYPGDSDTRYSPSFQGQVTISADKSITTAYLQWSSLKASDTAMYYCARPAHSSSWYGAFDLWGQGTTVTVSS VL: DIQMTQSPSSLSASVGDRVTITCRASQGISNYLAWYQQKPGKVPKLLIYAASTLQSGVPSRFSGSGSGTDFTLTISSLQPEDVATYYCQKYNSAPLTFGGGTKVEIK |  | 7.54 nM | 3.73 nM |  |  |
| ADI-21009 (antibody, V domains shown, also called Ab 260) VH: QVQLVQSGAEMKTPGASVKVSCKASGYSFSNYGFTWVRQAPGQGLEWMGWISGYSAKTNYAQDLQGRVTMTIDTSTSTSYMELRSLRSDDTAVYYCARDPLGYFGSGTYRGGAFDFWGQGTTVTVSS VL: QSALTQPASVSGSPGQSITLSCTGTNNDVGSYHLVSWYQQYPGKAPKLVIYEVTKRPSGVSNRFSGSKSGNTASLTISGLQPEDEADYYCCSYAGDRRIFGGGTKVTVL |  | 4.88 nM | 19.5 nM |  |  |
| ADI-20994 (antibody, V domains shown) VH: QVQLVQSGAEVKKPGASVKVSCKASGYTFSSNVIGWVRQAPGQGLEWMGWISTNNGNTKYGQKFQGRVTMTTDPSTSTAYMELRSLRSDDTAFYYCARESLGMGGFYFDYWGQGTLVTVSS VL: QPVLTQPPSVSVAPGQTARITCGGDNIGSKSVHWYQQKPGQAPVLVVYDDSDRPSGIPERFSGSNSGNTASLTISRVEAGDEADYCCQVWDSGSDLWVFG |  | 0.0894 nM | 0.109 nM |  |  |
| ADI-14584 (antibody, V domains shown, also called Ab 113) VH: QVQLVQSGAEVKKPGASVKVSCKASGFTFTNYGTSYGITWVRQAPGQGLEWMGWINTSNGNPNYAQKLQGRVTMTADTSTSTAYMELRSLISDDTAVYYCARGHRMVRGVVPTGYYGLDVWGQGTTVTVSS VL: DIQLTQSPSSLSASVGDRVTITCRASQSISSYLNWYQQKPGKAPKLLIFAASNLQSGVPSRFSGSGSGTDFTLTISSLQPEDFATYYCQQSYITPWTFGQGTKVEIK | no binding |  | 0.476 nM |  |  |
| ADI-14419 (antibody, V domains shown, also called Ab 85) VH: EVQLVESGGGVVQPGGSLRLSCAASGFSFSDYGMHWVRQAPGKGLEWVSFIRYDASYKFYADSVKGRFTISRDNAKNTLYLQINSLRAEDTAVYYCAKEIYGSGSYYYYYYAIDVWGQGTTVTVSS VL: EIVLTQSPGTLSLSPGERATLSCRASQSVSSSHLAWYQQKPGQAPRLLIYGASSRATGIPDRFSGSGSGTDFTLTISRLEPEDFAVYYCQQYFRSAWAFGQGTKVDIK | no binding | 2.69 nM |  |  |  |
| ADI-14394 (antibody, V domains shown, also called Ab 61) VH: EVQLLESGGGLVKPGGSLRLSCAASGFTFSSYSMNWVRQAPGKGLEWVSSISSSSSYIYYADSVKGRFTISRDNAKNSLYLQMNSLRAEDTAVYYCARGSEYYFDYWGQGTLVTVSS VL: QSVLTQPPSVSGAPGQRVTISCTGSSSNIGAGYDVHWYQQLPGTAPKLLIYGNSNRPSGVPDRFSGSKSGTSASLAITGLQAEDEADYYCQSYDSSLSVVFGGGTKVTVL | no binding | 11.5 nM |  |  |  |
| ADI-21060 (antibody, V domains shown) VH: EVQLVESGGGLVKPGGSLRLSCEASGFRLSDYYMTWIRQAPGKGLECISYISGGSTFKSYSDSVKGRFTISRDNTNLYLQMNSLRVEDTAVYYCARAPYLIYYMDVWGKGTTVTVSS VL: QPVLTQPPSVSGAPGQRVSISCTGSNSNIGAGYDVHWYQQLPGTPPKLLIYDNNNRPSGVPDRFSGSKSGTSASLAITGLQAEDEADYYCQSYDNRLSGSQVLFGGGTKVTVL |  | 0.426 nM | 0.349 nM |  |  |
